Values of other authors in publication PMC9256959.

Molecular target: AMH mature ligand mature domain (Homo sapiens) (UniProt P03971)

Kd: 0.4 pM
Substance: AMH prodomain prodomain (from UniProt P03971)
